Results taken from paper PMC3463355.
Changes are numbered by the printed parent chain.

B1: 30Blunt (dsDNA)
DNA 1: ATCAGATAGCATCTGTGCGGCCGCTTAGGG
DNA 2: CCCTAAGCGGCCGCACAGATGCTATCTGAT
B2: 30AATT (dsDNA)
DNA 1: B1 DNA 1 with T14A, G15A, G17T
DNA 2: B1 DNA 2 with C14A, C16T, A17T
modifications: 4 central bp of 30Blunt (TGTG) replaced by AATT

Columns and labels:
[1] = target: PARP-1 (full-length) (human, UniProt P09874 1-1014, V762A); experiment: HI-FI FRET
[2] = target: N-parp (Zn1-Zn3 and BRCT) (UniProt P09874 1-486); experiment: HI-FI FRET
N-parp (Zn1-Zn3 and BRCT), sequence (P09874 1-486): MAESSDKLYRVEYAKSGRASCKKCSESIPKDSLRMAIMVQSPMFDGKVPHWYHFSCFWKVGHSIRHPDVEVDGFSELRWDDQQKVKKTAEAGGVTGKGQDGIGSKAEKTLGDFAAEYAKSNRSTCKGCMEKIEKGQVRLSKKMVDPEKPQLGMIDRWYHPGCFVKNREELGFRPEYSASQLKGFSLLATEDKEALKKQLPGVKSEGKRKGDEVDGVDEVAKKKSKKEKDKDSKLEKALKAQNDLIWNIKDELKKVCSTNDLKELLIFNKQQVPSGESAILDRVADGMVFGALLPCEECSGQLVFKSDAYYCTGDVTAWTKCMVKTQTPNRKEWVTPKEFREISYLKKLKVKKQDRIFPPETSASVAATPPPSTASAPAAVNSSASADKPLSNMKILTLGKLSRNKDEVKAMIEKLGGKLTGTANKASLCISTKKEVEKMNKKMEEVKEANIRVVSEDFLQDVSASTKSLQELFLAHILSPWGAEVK

PARP-1 (full-length), sequence (P09874 whole entry V762A): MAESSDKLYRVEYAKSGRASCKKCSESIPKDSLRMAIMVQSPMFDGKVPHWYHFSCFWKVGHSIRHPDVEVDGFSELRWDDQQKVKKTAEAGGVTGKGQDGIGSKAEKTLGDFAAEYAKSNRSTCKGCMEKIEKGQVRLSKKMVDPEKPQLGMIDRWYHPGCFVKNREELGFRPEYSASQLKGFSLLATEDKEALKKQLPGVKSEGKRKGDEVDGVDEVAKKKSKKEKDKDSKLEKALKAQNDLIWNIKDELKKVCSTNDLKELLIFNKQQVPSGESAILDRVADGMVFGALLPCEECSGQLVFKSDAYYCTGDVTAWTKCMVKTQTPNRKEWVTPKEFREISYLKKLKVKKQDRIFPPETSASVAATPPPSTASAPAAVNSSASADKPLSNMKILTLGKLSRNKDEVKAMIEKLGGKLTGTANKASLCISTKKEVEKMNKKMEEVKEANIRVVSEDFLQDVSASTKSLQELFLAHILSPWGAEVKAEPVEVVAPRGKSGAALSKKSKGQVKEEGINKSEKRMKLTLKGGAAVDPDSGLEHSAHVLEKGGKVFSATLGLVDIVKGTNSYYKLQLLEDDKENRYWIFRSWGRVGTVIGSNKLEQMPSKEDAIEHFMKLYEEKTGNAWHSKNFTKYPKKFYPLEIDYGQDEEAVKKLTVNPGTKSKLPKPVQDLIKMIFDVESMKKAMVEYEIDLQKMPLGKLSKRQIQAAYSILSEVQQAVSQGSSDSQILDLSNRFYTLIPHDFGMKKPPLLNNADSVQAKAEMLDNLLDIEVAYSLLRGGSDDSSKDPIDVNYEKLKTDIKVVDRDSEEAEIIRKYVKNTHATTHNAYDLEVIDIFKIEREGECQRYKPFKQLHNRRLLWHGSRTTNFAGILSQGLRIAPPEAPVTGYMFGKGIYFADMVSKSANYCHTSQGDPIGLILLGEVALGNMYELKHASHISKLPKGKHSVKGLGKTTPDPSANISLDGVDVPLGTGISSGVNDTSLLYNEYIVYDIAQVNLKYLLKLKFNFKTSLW

| Binder | Kd [1] [nM] | Kd [2] [nM] |
| --- | --- | --- |
| B1 | 31.7 ± 6.9 | 62.2 ± 10.2 |
| B2 | 8.5 ± 2.1 | 25.7 ± 0.9 |
